Test results reported in article PMC11614891.
Square brackets hold non-standard residues; d marks the D form. Ends that are not written are not given here. * marks the point of attachment. Biotin = O=C1N[C@H]2[C@H](CS[C@H]2CCCCC(=O)*)N1

Biological target: L-19437_(D-Pep-1)
Experiment: ITC; MicroCal PEAQ-ITC, 19 injections; peptide titrated over the binder (L-19437 15 uM, D-Pep-1 150 uM); PBS pH 7.4; One Set of Sites mode

Biotin-[dD][dE][dH][dE][dL][dL][dE][dT][dA][dA][dR][dW][dF][dY][dE][dI][dA][dK][dR][dA] [D-Pep-1]
Kd: 48.7 nM | stoichiometry N: 0.938 sites
